Measured values: article PMC11922745, “Reconstitution of SPO11-dependent double-strand break formation” (Nature, 2024)
Residue numbers refer to the chain shown, from its start. One block for each binder: values may come before it.

Assays:
[1] = molecular target: T1, SPO11 Y138F;TOP6BL (Mus musculus;Mus musculus, UniProt Q9WTK8;J3QMY9 1-396;1-579, Y138F|); test: EMSA; 5 mM Mg2+; apparent Kd; Hairpin EMSA: 25 mM Tris-HCl pH 7.5, 100 mM NaCl, 5 mM MgCl2, 7.5% glycerol, 2 mM DTT, 1 mg/ml BSA, 0.1 nM DNA, 30 min 30 C; cleavage-oligo EMSA: 25 mM HEPES-NaOH pH 7.5, 50 mM NaCl, 5 mM MgCl2, 7.5% glycerol, 1 mg/ml BSA, 2 mM DTT, 4 C; conditions: protein: recombinant;recombinant, tags: N-terminal Flag-TEV;untagged, copies: 1;1, label: 5'-32P, 5' overhang 2 nt
T1 sequence 1: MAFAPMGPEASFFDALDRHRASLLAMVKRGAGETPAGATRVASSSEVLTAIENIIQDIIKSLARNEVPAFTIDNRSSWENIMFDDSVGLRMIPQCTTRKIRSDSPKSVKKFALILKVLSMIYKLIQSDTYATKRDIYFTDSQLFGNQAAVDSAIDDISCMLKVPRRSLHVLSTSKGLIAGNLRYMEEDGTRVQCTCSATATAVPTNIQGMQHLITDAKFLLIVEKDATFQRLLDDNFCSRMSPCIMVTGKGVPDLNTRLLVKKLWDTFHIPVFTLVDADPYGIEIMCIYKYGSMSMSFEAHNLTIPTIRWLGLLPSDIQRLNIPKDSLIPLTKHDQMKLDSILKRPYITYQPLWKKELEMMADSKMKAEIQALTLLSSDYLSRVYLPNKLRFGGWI
T1 sequence 2: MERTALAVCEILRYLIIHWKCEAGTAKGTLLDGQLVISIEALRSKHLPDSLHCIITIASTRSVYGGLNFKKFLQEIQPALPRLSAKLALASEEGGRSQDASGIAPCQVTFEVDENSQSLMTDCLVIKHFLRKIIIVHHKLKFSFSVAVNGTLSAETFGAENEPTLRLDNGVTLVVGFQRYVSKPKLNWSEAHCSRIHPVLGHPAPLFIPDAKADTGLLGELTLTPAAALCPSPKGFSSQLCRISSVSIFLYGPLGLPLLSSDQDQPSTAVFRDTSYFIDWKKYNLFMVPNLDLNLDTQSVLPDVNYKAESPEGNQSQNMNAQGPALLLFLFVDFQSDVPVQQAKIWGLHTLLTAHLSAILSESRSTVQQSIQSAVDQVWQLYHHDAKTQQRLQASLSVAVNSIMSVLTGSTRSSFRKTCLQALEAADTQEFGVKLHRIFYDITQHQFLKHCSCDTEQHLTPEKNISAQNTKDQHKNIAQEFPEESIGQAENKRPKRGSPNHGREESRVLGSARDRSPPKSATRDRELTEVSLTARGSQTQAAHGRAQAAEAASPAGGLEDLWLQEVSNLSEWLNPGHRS

[2] = molecular target: T2, SPO11 E224A;TOP6BL (Mus musculus;Mus musculus, UniProt Q9WTK8;J3QMY9 1-396;1-579, E224A|); test: EMSA; 5 mM Mg2+; DNA binding retained; Kd value only in figure; Hairpin EMSA: 25 mM Tris-HCl pH 7.5, 100 mM NaCl, 5 mM MgCl2, 7.5% glycerol, 2 mM DTT, 1 mg/ml BSA, 0.1 nM DNA, 30 min 30 C; cleavage-oligo EMSA: 25 mM HEPES-NaOH pH 7.5, 50 mM NaCl, 5 mM MgCl2, 7.5% glycerol, 1 mg/ml BSA, 2 mM DTT, 4 C; conditions: protein: recombinant;recombinant, tags: N-terminal Flag-TEV;untagged, copies: 1;1, label: 5'-32P, 5' overhang 2 nt
T2 sequence 1: T1 sequence 1 with F138Y, E224A
T2 sequence 2: T1 sequence 2

[3] = molecular target: T3, SPO11 (beta isoform);TOP6BL (Mus musculus;Mus musculus, UniProt Q9WTK8;J3QMY9 1-396;1-579, |); test: EMSA; 5 mM Mg2+; apparent Kd, end binding; second shift at >=25 nM; Hairpin EMSA: 25 mM Tris-HCl pH 7.5, 100 mM NaCl, 5 mM MgCl2, 7.5% glycerol, 2 mM DTT, 1 mg/ml BSA, 0.1 nM DNA, 30 min 30 C; cleavage-oligo EMSA: 25 mM HEPES-NaOH pH 7.5, 50 mM NaCl, 5 mM MgCl2, 7.5% glycerol, 1 mg/ml BSA, 2 mM DTT, 4 C; conditions: protein: recombinant;recombinant, tags: N-terminal Flag-TEV;untagged, copies: 1;1, label: 5'-32P, 5' overhang 2 nt
T3 sequence 1: T1 sequence 1 with F138Y
T3 sequence 2: T1 sequence 2

[4] = molecular target: T3, SPO11 (beta isoform);TOP6BL; test: EMSA; double-end binding disfavoured at 0.8 nM, restored at higher protein; Hairpin EMSA: 25 mM Tris-HCl pH 7.5, 100 mM NaCl, 5 mM MgCl2, 7.5% glycerol, 2 mM DTT, 1 mg/ml BSA, 0.1 nM DNA, 30 min 30 C; cleavage-oligo EMSA: 25 mM HEPES-NaOH pH 7.5, 50 mM NaCl, 5 mM MgCl2, 7.5% glycerol, 1 mg/ml BSA, 2 mM DTT, 4 C; conditions: protein: recombinant;recombinant; tags: N-terminal Flag-TEV;untagged; copies: 1;1; label: 5'-32P; 5' overhang 2 nt (TA) at both ends
[5] = molecular target: T3, SPO11 (beta isoform);TOP6BL; test: EMSA; double-end binding possible at 0.8 nM; Hairpin EMSA: 25 mM Tris-HCl pH 7.5, 100 mM NaCl, 5 mM MgCl2, 7.5% glycerol, 2 mM DTT, 1 mg/ml BSA, 0.1 nM DNA, 30 min 30 C; cleavage-oligo EMSA: 25 mM HEPES-NaOH pH 7.5, 50 mM NaCl, 5 mM MgCl2, 7.5% glycerol, 1 mg/ml BSA, 2 mM DTT, 4 C; conditions: protein: recombinant;recombinant; tags: N-terminal Flag-TEV;untagged; copies: 1;1; label: 5'-32P; 5' overhang 2 nt (TA) at both ends
[6] = molecular target: T4, Flag-tagged mouse SPO11 (β splicing isoform), wild type (mouse, UniProt Q9WTK8-1 1-396); test: SEC; proteins co-expressed in FreeStyle 293-F cells; lysate (25 mM HEPES-NaOH pH 7.5, 500 mM NaCl) on anti-Flag M2 affinity gel, eluted with Flag peptide, then Superdex 200 Increase 10/300 GL; fractions on Coomassie-stained SDS-PAGE; conditions: partners not purified
T4 construct: mouse SPO11, β splicing isoform (includes exon 2), UniProt Q9WTK8-1, full-length optimized coding DNA; A TEV cleavage site lies between the Flag tag and SPO11; no cleavage is described; also called Flag–SPO11; mSPO11; not shown: Flag, N-terminal, kept
T4 sequence (looked up): T1 sequence 1 with F138Y

[7] = molecular target: T3, SPO11 (beta isoform);TOP6BL; test: EMSA; 5 mM Mg2+, 50 mM NaCl, 4 C; apparent Kd for first monomer; doubly bound complexes formed; Hairpin EMSA: 25 mM Tris-HCl pH 7.5, 100 mM NaCl, 5 mM MgCl2, 7.5% glycerol, 2 mM DTT, 1 mg/ml BSA, 0.1 nM DNA, 30 min 30 C; cleavage-oligo EMSA: 25 mM HEPES-NaOH pH 7.5, 50 mM NaCl, 5 mM MgCl2, 7.5% glycerol, 1 mg/ml BSA, 2 mM DTT, 4 C; conditions: protein: recombinant;recombinant; tags: N-terminal Flag-TEV;untagged; copies: 1;1; label: 32P (5' labelled, then ligated); closed dumbbell, 44 bp duplex with two A4 hairpin loops
[8] = molecular target: T3, SPO11 (beta isoform);TOP6BL; test: EMSA; double-end binding; Hairpin EMSA: 25 mM Tris-HCl pH 7.5, 100 mM NaCl, 5 mM MgCl2, 7.5% glycerol, 2 mM DTT, 1 mg/ml BSA, 0.1 nM DNA, 30 min 30 C; cleavage-oligo EMSA: 25 mM HEPES-NaOH pH 7.5, 50 mM NaCl, 5 mM MgCl2, 7.5% glycerol, 1 mg/ml BSA, 2 mM DTT, 4 C; conditions: protein: recombinant;recombinant; tags: N-terminal Flag-TEV;untagged; copies: 1;1; label: 5'-32P; 5' overhang 2 nt (TA) at both ends

Binder: TAGCAATGTAATCGTCTATGACGTTAACGTCATAGACGATTACATTGC (structured_DNA) [25 bp hairpin, 2-nt 5' overhang]
Kd [1]: 0.57 ± 0.03 nM
binding result [2]: binds
Kd [3]: 0.59 ± 0.05 nM

B1: 27 bp double-overhang duplex (dsDNA)
DNA 1: TAGCAATGTAATCGTCTATGACGTTAGCG
DNA 2: TACGCTAACGTCATAGACGATTACATTGC
binding result [4]: binds

B2: 22 bp double-overhang duplex (dsDNA)
DNA 1: TAGCAATGTAATCGTCTATGACGT
DNA 2: TAACGTCATAGACGATTACATTGC
binding result [5]: binds

B3: 26 bp double-overhang duplex (dsDNA)
DNA 1: TAGCAATGTAATCGTCTATGACGTTAGC
DNA 2: TAGCTAACGTCATAGACGATTACATTGC
binding result [4]: binds

B4: 23 bp double-overhang duplex (dsDNA)
DNA 1: TAGCAATGTAATCGTCTATGACGTT
DNA 2: TAAACGTCATAGACGATTACATTGC
binding result [5]: binds

B5: 24 bp double-overhang duplex (dsDNA)
DNA 1: TAGCAATGTAATCGTCTATGACGTTA
DNA 2: TATAACGTCATAGACGATTACATTGC
binding result [4]: binds

stoichiometry N [6]: 1
B6: mouse TOP6BL, untagged (natural protein, UniProt J3QMY9-1 1-579, looked up)
chain: T1 sequence 2
notes: mouse TOP6BL, UniProt J3QMY9-1, untagged, optimized coding DNA

B7: 25 bp double-overhang duplex (dsDNA)
DNA 1: TAGCAATGTAATCGTCTATGACGTTAG
DNA 2: TACTAACGTCATAGACGATTACATTGC
binding result [4]: binds

B8: oligonucleotide cleavage substrate (44 bp, A4 loops at both ends) (structured_DNA)
DNA: CGGTTCAAAAGAACCGGAGCTGAATGAAGCCATACCAAACGACGAGCGTGACACAAAAGTGTCACGCTCGTCGTTTGGTATGGCTTCATTCAGCTC
modifications: covalently closed circle (ligated)
Kd [7]: 1.8 nM

B9: 28 bp double-overhang duplex (dsDNA)
DNA 1: TAGCAATGTAATCGTCTATGACGTTAGCGC
DNA 2: TAGCGCTAACGTCATAGACGATTACATTGC
binding result [8]: binds
